IntAct's records for PubMed 19416828

B1: Splicing factor rtf2 (Schizosaccharomyces pombe (strain ATCC 38366 / 972)), Q10154 (parent)
chain: MGNDGGSLPTRNELVKEPGKVPPLDIDFKRSVKSSQFSQCAITDEPLYPPIVSCGLGKLYNKASILQMLLDRSSVPKSPSHIKSLKDVVQLQVELDDSGKVLWLCPITRHVMSDTYQFAYIVPCGHVFEYSALKQFGEKMCFQCNQVYEEKDVIPINPNAEQLKTLSKRLLDLALSEKTHSLNKASKKSNKNGDKKRKHVSKSNSKHAKHELRTNRMLDGENVKSETSVTDMERVKRVKI
partner: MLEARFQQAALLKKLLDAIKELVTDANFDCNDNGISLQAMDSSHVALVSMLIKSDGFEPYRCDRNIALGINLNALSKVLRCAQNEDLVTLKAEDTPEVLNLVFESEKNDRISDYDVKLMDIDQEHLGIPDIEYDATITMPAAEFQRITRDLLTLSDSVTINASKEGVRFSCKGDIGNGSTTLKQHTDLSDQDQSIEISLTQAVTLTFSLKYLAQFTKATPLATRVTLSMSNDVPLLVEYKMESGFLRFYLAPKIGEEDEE

Variants of: B1
Settings: with pcna_schpo pcn1, Q03392

Variant	effect of a mutation on the interaction
C141G	disrupting interaction
